Experimental data published in US20220233746A1, “PHARMACEUTICAL COMPOSITION FOR JOINT DISEASE TREATMENT AND METHOD FOR PRODUCING SAME” (EDUCATIONAL FOUNDATION OF OSAKA MEDICAL AND PHARMACEUTICAL …, priority 2019, published 2022).

What was measured:
[1] = Measurement of mechanical strength of peptide hydrogel (rheology measurement, rheometer); assay type: physicochemical
Method: Next, an equal amount (100 μL) of 2×PBS, 4×PBS, 6×PBS or 10×PBS was added to the aqueous peptide solution and mixed. Therefore, the final concentration of PBS in the mixture was 1×PBS, 2×PBS, 3×PBS, and 5×PBS, respectively. Thereafter, it was allowed to stand still in a cool and dark place for one day. As a result, the peptide in the aqueous peptide solution self-assembled by the action of the salt in PBS, and a peptide hydrogel was obtained. In addition, as a comparative example, Eagle's minimum essential medium (EMEM), which contains salts necessary for gel formation but is considered to be toxic in vivo, or 10 wt % NaCl aqueous solution (final concentration is 5 wt %) was added in an equal amount to the peptide aqueous solution and mixed, and the mixture was allowed to stand still in a cool and dark place for 1 day. A peptide hydrogel was also obtained in this comparative example.
[Example 2: Measurement of mechanical strength of peptide hydrogel] In order to evaluate the mechanical strength of each peptide hydrogel obtained as described above, a rheometer (HAAKE viscosity/viscoelasticity measuring device (HAAKE MARS40) manufactured by Thermo Scientific) was used for each peptide hydrogel and the rheology thereof was measured.

rabbit meniscus defect = assay: Rabbit meniscus defect model, transplantation of peptide hydrogel into the defect; assay type: in vivo, Japanese white rabbits
Method: First, 20 male Japanese white rabbits weighing 3.0 to 3.4 kg at 6 months of age were prepared, and a cylindrical defect with a diameter of 2.0 mm was prepared in the medial anterior segment of the meniscus of both knees (FIG. 2A). Further, a peptide hydrogel produced by the above method using a peptide of KI24RGDS and 5×PBS was prepared (FIG. 2B), and the peptide hydrogel was filled in the defect. The group in which the defect was filled with peptide hydrogel was designated as the KI24RGDS group, and the group in which no treatment was applied to the defect was designated as the control group. After transplantation, tissue evaluation was performed on the knees of each group using hematoxylin/eosin staining (HE staining) or safranin O staining. Tissue evaluation was performed at 2, 4, 8 and 12 weeks after transplantation, and 5 animals (10 knees) were evaluated at each evaluation period. In addition, the tissue evaluation used Ishida score and Quantitative Analysis of the Occupation Ratio of Tissue Regeneration (R/D ratio). In the evaluation based on Ishida score, scores were given from the three viewpoints shown in Table 1 below, and the degree of tissue repair was evaluated by the total. On the other hand, in the evaluation based on the R/D ratio, the degree of tissue repair was evaluated by analyzing the area of the entire defect (D) and the area of the repaired tissue (R) and calculating the ratio of R/D using ImageJ software as shown in FIG. 3.

[2] = hydrogel made with 5×PBS filled in 2.0 mm meniscus defect, 2, 4, 8 and 12 weeks after transplantation, versus untreated control group

**Q.** What does the source list for “IKIKIKIKIKRGDSKIKIKIKIKI (Peputide including strand and turn) [KI24RGDS, self-assembling β-hairpin peptide tested as a peptide hydrogel formed by adding PBS, NaCl solution or EMEM to its aqueous solution]”?
**A.** difference between the storage elastic modulus G and the loss elastic modulus G″ ([1]; comparative hydrogel produced with 5 wt % NaCl aqueous solution (final concentration)): approximately 3750; difference between the storage elastic modulus G and the loss elastic modulus G″ ([1]; hydrogel produced with 3×PBS (final concentration)): approximately 3950; loss elastic modulus G″ of the peptide hydrogel ([1]; hydrogel produced with 5×PBS (final concentration)): about 800; storage elastic modulus G of the peptide hydrogel ([1]; hydrogel produced with 5×PBS (final concentration), 6% aqueous peptide solution mixed in equal amount): about 15,000; macroscopic findings of the meniscus defect (rabbit meniscus defect; 2, 4, 8 and 12 weeks after transplantation (FIG. 4)): became smaller and repaired; safranin O-stained meniscus tissue findings (rabbit meniscus defect; 2, 4, 8 and 12 weeks after transplantation (FIG. 5)): cells gathered in the defect and the tissue was repaired; Ishida score (rabbit meniscus defect; [2]): higher in the KI24RGDS group than in the control group; R/D ratio (Occupation Ratio of Tissue Regeneration) (rabbit meniscus defect; [2]): higher in the KI24RGDS group than in the control group
